Data on 1 substance can be found in patent US7452534.

The assay deals with human CD4 on cells (human) (UniProt P01730). Nature of the assay: cell-based or functional assay.

Substance “CE9γ4λK, chimeric anti-CD4 antibody with human gamma 4 heavy chain constant domain and human kappa light chain constant region” had an MLR IL-2 Production (IC50) of 0.02 µg/mL and an MLR Proliferation (IC50) of 0.02 µg/mL.
